Results from patent US20230346897A1.

Biological target: human amyloid Aβ40 (human) (UniProt P05067)

amount of Aβ40 left (Tricine-SDS-PAGE, quantitative scanning; solvent control defined as 100%) after 3 h at 37 °C in rabbit cerebrospinal fluid: 74.8%
Substance: human plasminogen purified from the plasma of human donors (enzyme)
